Experimental data as given in paper PMC5531264.
Read-outs that look alike come from different tables or passages of the source.

Key:
Experiment in all cases: fluorescence anisotropy
[1] = biological target: T1, SAMHD1 C-terminal peptide (human, UniProt Q9Y3Z3 583-626)
T1 chain: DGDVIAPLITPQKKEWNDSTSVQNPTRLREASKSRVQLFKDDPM

[2] = biological target: SAMHD1 RR (human, UniProt Q9Y3Z3 1-626, R371E;R372E)
[3] = biological target: SAMHD1 RK (human, UniProt Q9Y3Z3 1-626, R333E;K336E)
[4] = biological target: SAMHD1 RKRR (human, UniProt Q9Y3Z3 1-626, R333E;K336E;R371E;R372E)
[5] = biological target: T2, SAMHD1 wild-type (human, UniProt Q9Y3Z3 1-626)
[6] = biological target: T2, SAMHD1 wild-type; remark: listed apart in the source

B1: FAM-dT60 (ssDNA)
DNA: TTTTTTTTTTTTTTTTTTTTTTTTTTTTTTTTTTTTTTTTTTTTTTTTTTTTTTTTTTTT
Kd [1]: 54 ± 5 µM | apparent K (half saturation) [2]: 15 ± 1 µM | apparent K (half saturation) [3]: 7.6 ± 0.4 µM | apparent K (half saturation) [4]: 30 ± 2 µM | apparent K (half saturation) [5]: 700 ± 100 nM | apparent K (half saturation) [6]: 500 ± 100 nM
